What was measured:
[1] = target: human serum albumin (human) (UniProt P02768); test: SPR, affinity to HSA
[2] = target: VEGFR2 as engaged in the VEGF hBa/F3 proliferation assay; test: cell-based or functional assay

Chain of human serum albumin (human) (P02768 25-609): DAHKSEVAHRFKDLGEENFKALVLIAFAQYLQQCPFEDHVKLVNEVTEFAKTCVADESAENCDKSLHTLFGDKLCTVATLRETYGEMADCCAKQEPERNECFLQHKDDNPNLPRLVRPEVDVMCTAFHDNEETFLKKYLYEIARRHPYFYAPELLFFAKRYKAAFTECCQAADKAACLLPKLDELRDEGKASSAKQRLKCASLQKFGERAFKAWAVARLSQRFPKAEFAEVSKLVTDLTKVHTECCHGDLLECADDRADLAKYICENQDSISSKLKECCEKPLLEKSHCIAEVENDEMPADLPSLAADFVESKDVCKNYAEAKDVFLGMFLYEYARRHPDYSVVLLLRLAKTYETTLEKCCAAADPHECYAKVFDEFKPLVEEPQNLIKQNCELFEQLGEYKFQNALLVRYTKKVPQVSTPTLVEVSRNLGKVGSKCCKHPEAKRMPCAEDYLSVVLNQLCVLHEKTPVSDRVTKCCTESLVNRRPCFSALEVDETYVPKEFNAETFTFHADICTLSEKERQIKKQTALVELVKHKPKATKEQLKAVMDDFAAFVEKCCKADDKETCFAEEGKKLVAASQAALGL

Kd [1]	IC50, VEGF hBa/F3 proliferation assay [2]	IC50, VEGF hBa/F3 proliferation assay, with HSA [2]	Rel Pot (C7FL), VEGF hBa/F3 proliferation assay [2]	Rel Pot (C7FL), VEGF hBa/F3 proliferation assay, with HSA [2]	Substance
1.6 to 2.6 nM					ABD (alone; column 'ABD' of Table 6)
	7.53	8.85	0.62	0.53	CT-322 (C7FL lacking the 8 N-terminal amino acids and linked to PEG) (designed binder)
